Fold strengthening of homodimerization (SPR Kd) with Ca^2+ and stoichiometry N data for 1 substance are collected here from article PMC8889552.

“And” between values parts separate entries of the source, which are not always exact repeats. Identical values can stand only once.

Test [1] deals with recombinant HIV Gag (Pr55^Gag) (HIV). Kind of test: SPR. (In general: In SPR one partner is held on a chip, and binding of the other changes the refractive index at the surface.)
Test [2] has the same target. Kind of test: charge detection mass spectrometry.

Usually stoichiometry N stands for the number of molecules, sites or subunits per partner or assembly. Consider “recombinant HIV Gag (Pr55^Gag) (natural protein)”, for which, in test [1], the fold strengthening of homodimerization (SPR Kd) with Ca^2+ was less than 7 fold. In test [2], the stoichiometry N is 125 mers and 220 mers.
